For assay [1], the target named is T1, Human CD123-His (human, UniProt P26951 19-305).
T1 construct: also called interleukin 3 receptor alpha; IL-3Rα; not shown: His tag
T1 sequence (looked up): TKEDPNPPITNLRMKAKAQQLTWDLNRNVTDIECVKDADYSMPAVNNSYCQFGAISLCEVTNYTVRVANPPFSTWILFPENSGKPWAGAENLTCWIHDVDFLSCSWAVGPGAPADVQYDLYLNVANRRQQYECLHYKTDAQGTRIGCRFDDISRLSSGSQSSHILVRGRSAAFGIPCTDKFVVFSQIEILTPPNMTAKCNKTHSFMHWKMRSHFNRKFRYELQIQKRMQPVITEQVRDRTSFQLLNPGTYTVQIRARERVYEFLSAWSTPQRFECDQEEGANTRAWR
The assay is described as follows: kinetic binding analysis, method not given.

Assay [2] has as its target T2, Cynomolgus CD123-His (cynomolgus monkey).
T2 construct: also called cynomolgus monkey CD123
Put plainly: kinetic binding analysis, method not given.

B1: DART-A, sequence-optimized CD123×CD3 bi-specific monovalent diabody (bispecific antibody)
chain 1: QAVVTQEPSLTVSPGGTVTLTCRSSTGAVTTSNYANWVQQKPGQAPRGLIGGTNKRAPWTPARFSGSLLGGKAALTITGAQAEDEADYYCALWYSNLWVFGGGTKLTVLGGGGSGGGGEVQLVQSGAELKKPGASVKVSCKASGYTFTDYYMKWVRQAPGQGLEWIGDIIPSNGATFYNQKFKGRVTITVDKSTSTAYMELSSLRSEDTAVYYCARSHLLRASWFAYWGQGTLVTVSSGGCGGGEVAALEKEVAALEKEVAALEKEVAALEK
chain 2: DFVMTQSPDSLAVSLGERVTMSCKSSQSLLNSGNQKNYLTWYQQKPGQPPKLLIYWASTRESGVPDRFSGSGSGTDFTLTISSLQAEDVAVYYCQNDYSYPYTFGQGTKLEIKGGGSGGGGEVQLVESGGGLVQPGGSLRLSCAASGFTFSTYAMNWVRQAPGKGLEWVGRIRSKYNNYATYYADSVKDRFTISRDDSKNSLYLQMNSLKTEDTAVYYCVRHGNFGNSYVSWFAYWGQGTLVTVSSGGCGGGKVAALKEKVAALKEKVAALKEKVAALKE
notes: no Fc; also called CD123×CD3 DART molecule
By kon is commonly meant a measure of how fast the partners come together. In the case of B1, the kon stood at 160000 M⁻¹ s⁻¹ in assay [1] and 150000 M⁻¹ s⁻¹ in assay [2].

The values above are taken from US20210061911A1 (MacroGenics, published 2021).
